From US20100216663A1

Target: human IgE (human) (UniProt P01854)
Experiment: Biacore, human IgE on CM5 chip, sample protein in flow

human IgE (human), sequence (P01854 other isoform, or with tags, fused parts or gaps): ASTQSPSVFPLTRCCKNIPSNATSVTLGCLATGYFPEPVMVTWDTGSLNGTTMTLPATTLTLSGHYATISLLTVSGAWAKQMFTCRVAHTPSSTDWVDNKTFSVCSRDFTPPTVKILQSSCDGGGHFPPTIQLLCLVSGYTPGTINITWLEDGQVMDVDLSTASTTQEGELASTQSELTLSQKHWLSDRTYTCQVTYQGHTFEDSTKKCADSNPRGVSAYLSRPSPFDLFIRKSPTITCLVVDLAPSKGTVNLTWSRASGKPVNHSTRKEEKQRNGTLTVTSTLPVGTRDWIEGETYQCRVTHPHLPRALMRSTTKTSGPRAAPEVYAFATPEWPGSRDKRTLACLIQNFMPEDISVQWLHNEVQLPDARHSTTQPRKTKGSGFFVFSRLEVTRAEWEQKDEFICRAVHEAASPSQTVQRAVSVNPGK

For “recombinant human FcERI protein (from UniProt P12319 26-205) (receptor)”, the Kd was 450 nM.
